# Laboratory results reported in article PMC3565990.
# Biological target: SHP-1 (UniProt P29351)
# Assay: anti-FLAG IP, anti-SHP-1 Western blot
# Settings: reference: wild-type CD72fl, NP-BSA stimulated; sites Y7
substance,measurement,value
"human CD72fl (FLAG-tagged) (from UniProt P21854) CD72flYF (Y7F), NP-BSA stimulated",binding against the reference,lost
